Here are results for 1 substance from PMC4938795.

The test concerns the target RD1-MART1^HIGH Y93Fα, yeast displayed (human). Nature of the test: flow cytometry on cells. (In general: In flow cytometry, cells or beads pass a laser one at a time.)

“MART1/HLA-A2 monomer (from UniProt P61769 21-119) (peptide-MHC)”: the fold weaker binding than RD1-MART1^HIGH was 10 fold.
